{
  "source": "paper PMC6980713",
  "binders": {"B1": {"name": "P5nt palindromic DNA (dsDNA)", "DNA 1": "CAACGTTGTTTTT", "DNA 2": "CAACGTTGTTTTT"}},
  "target": "T1, HMCES SRAP domain (SRAPd) (Homo sapiens, UniProt Q96FZ2 1-270)",
  "T1 sequence": "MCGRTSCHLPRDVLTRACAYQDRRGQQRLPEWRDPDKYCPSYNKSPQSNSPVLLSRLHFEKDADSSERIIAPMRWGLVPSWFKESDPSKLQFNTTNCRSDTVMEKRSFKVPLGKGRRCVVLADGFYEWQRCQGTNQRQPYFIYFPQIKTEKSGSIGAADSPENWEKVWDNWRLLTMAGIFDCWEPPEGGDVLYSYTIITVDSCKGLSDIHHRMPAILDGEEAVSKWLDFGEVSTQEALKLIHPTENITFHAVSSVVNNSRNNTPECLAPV",
  "assay": "X-ray crystallography",
  "data": [
    {"binder": "B1", "values": [
      {"measurement": "binding result", "result": "binds"}
    ]}
  ]
}
